Target: the molecule itself
Assay: single molecule photobleaching

B1: Kif15-FL-GFP-His6 (natural protein, human, UniProt Q9NS87 1-1388, looked up)
chain: MAPGCKTELRSVTNGQSNQPSNEGDAIKVFVRIRPPAERSGSADGEQNLCLSVLSSTSLRLHSNPEPKTFTFDHVADVDTTQESVFATVAKSIVESCMSGYNGTIFAYGQTGSGKTFTMMGPSESDNFSHNLRGVIPRSFEYLFSLIDREKEKAGAGKSFLCKCSFIEIYNEQIYDLLDSASAGLYLREHIKKGVFVVGAVEQVVTSAAEAYQVLSGGWRNRRVASTSMNRESSRSHAVFTITIESMEKSNEIVNIRTSLLNLVDLAGSERQKDTHAEGMRLKEAGNINRSLSCLGQVITALVDVGNGKQRHVCYRDSKLTFLLRDSLGGNAKTAIIANVHPGSRCFGETLSTLNFAQRAKLIKNKAVVNEDTQGNVSQLQAEVKRLKEQLAELASGQTPPESFLTRDKKKTNYMEYFQEAMLFFKKSEQEKKSLIEKVTQLEDLTLKKEKFIQSNKMIVKFREDQIIRLEKLHKESRGGFLPEEQDRLLSELRNEIQTLREQIEHHPRVAKYAMENHSLREENRRLRLLEPVKRAQEMDAQTIAKLEKAFSEISGMEKSDKNQQGFSPKAQKEPCLFANTEKLKAQLLQIQTELNNSKQEYEEFKELTRKRQLELESELQSLQKANLNLENLLEATKACKRQEVSQLNKIHAETLKIITTPTKAYQLHSRPVPKLSPEMGSFGSLYTQNSSILDNDILNEPVPPEMNEQAFEAISEELRTVQEQMSALQAKLDEEEHKNLKLQQHVDKLEHHSTQMQELFSSERIDWTKQQEELLSQLNVLEKQLQETQTKNDFLKSEVHDLRVVLHSADKELSSVKLEYSSFKTNQEKEFNKLSERHMHVQLQLDNLRLENEKLLESKACLQDSYDNLQEIMKFEIDQLSRNLQNFKKENETLKSDLNNLMELLEAEKERNNKLSLQFEEDKENSSKEILKVLEAVRQEKQKETAKCEQQMAKVQKLEESLLATEKVISSLEKSRDSDKKVVADLMNQIQELRTSVCEKTETIDTLKQELKDINCKYNSALVDREESRVLIKKQEVDILDLKETLRLRILSEDIERDMLCEDLAHATEQLNMLTEASKKHSGLLQSAQEELTKKEALIQELQHKLNQKKEEVEQKKNEYNFKMRQLEHVMDSAAEDPQSPKTPPHFQTHLAKLLETQEQEIEDGRASKTSLEHLVTKLNEDREVKNAEILRMKEQLREMENLRLESQQLIEKNWLLQGQLDDIKRQKENSDQNHPDNQQLKNEQEESIKERLAKSKIVEEMLKMKADLEEVQSALYNKEMECLRMTDEVERTQTLESKAFQEKEQLRSKLEEMYEERERTSQEMEMLRKQVECLAEENGKLVGHQNLHQKIQYVVRLKKENVRLAEETEKLRAENVFLKEKKRSES
stoichiometry N: 2
